Laboratory results published in PMC6628129 (Biology, 2019).

Biological target: T1, Prostacyclin synthase (PTGIS), truncated, His-tagged, with Avi-tag, biotinylated (UniProt Q16647 1-500, biotin (in vivo biotinylation of the Avi-tag))
T1 construct: Prostacyclin synthase (PTGIS; EC 5.3.99.4), truncated (by the membrane domain); Held on the streptavidin (SA) chip; also called biotinylated PTGIS; PTGIS immobilized on the optical chip; source: E. coli BL21(DE3), purified (Ni-NTA, SEC)
T1 sequence (looked up): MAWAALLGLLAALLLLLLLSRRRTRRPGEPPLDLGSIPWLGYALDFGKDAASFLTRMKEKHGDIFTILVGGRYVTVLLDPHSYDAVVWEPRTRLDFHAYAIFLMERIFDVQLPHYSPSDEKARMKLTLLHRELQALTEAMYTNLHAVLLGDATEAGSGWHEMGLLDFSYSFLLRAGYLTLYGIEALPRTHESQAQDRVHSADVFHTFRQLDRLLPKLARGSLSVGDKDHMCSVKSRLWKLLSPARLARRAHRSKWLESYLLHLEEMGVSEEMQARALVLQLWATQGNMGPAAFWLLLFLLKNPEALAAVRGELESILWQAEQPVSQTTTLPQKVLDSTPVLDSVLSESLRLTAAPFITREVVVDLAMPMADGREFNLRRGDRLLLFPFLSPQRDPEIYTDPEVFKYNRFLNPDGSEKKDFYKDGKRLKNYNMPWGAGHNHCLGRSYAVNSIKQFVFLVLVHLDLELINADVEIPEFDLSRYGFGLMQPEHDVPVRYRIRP
Assay: SPR; biotinylated PTGIS on a streptavidin (SA) chip, purified protein injected as analyte; 25 °C, Biacore T-200
Settings: both partners purified

Kd: 200 nM
B1: Cytochrome P450 2J2 (CYP2J2), truncated and His-tagged (enzyme)
chain: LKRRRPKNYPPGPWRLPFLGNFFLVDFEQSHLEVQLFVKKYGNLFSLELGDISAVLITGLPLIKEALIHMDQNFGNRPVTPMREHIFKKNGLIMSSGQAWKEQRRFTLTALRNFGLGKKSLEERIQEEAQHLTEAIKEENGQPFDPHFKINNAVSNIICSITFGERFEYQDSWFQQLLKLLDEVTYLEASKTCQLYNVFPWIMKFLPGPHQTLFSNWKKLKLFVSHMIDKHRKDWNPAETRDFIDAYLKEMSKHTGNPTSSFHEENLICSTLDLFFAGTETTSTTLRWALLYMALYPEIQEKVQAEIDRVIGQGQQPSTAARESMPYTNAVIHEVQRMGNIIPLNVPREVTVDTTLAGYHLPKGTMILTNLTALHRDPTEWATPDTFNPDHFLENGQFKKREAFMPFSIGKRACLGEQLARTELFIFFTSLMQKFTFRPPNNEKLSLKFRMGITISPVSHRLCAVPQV
